Test results taken from patent US9295724B2, “Stable formulations for parenteral injection of peptide drugs” (Xeris Pharmaceuticals, Inc., priority 2011, dated 2016).

Tests used:
[1] = Effect of pH on insulin solubility in DMSO; format: physicochemical
Procedure: These solutions were lyophilized to dryness ([…]) using a conservative cycle and reconstituted to various nominal concentrations in DMSO. Solubility was measured by visual inspection for clarity and turbidity via A630.

[2] = Freezing point depression of DMSO solutions by DSC; format: physicochemical; conditions: cooled to −40° C. and heated to 40° C. at 8° C. per minute
Procedure: Using PerkinElmer Instruments PYRIS Diamond Differential Scanning Calorimetry (“DSC”), samples were cooled to −40° C. and heated to 40° C. at 8° C. per minute for screening purposes.

| temperature of crystallization (Tc) by DSC [2] [°C] | Compound | solubility in DMSO ([1]; lyophilized at pH 2) | time to slowly dissolve to a clear solution ([1]; pH memory of 7, lower concentration e.g. 10 mg/mL, DMSO) | solubility in DMSO ([1]; pH memory of 7, lowest concentration tested 10 mg/mL) |
| --- | --- | --- | --- | --- |
| – | insulin | at least 100 mg/mL | about 24 hours | poor solubility |
| 18 | C[S+](C)[O-] [neat DMSO, dimethylsulfoxide] | – | – | – |
